“Also recorded” adds a separate entry of the source. Read-outs that look alike come from different tables or passages of the source.
Test system: Nav1.6
Test: Patch-clamp recording of VGSC current in HEK (Nav1.6) cells
Format: cell-based, human

B1: Thaumatin: sweet-tasting protein binding to the CRD of T1R3 (protein)
chain: ATFEIVNRCSYTVWAAASKGDAALDAGGRQLNSGESWTINVEPGTNGGKIWARTDCYFDDSGSGICKTGDCGGLLRCKRFGRPPTTLAEFSLNQYGKDYIDISNIKGFNVPMDFSPTTRGCRGVRCAADIVGQCPAKLKAPGGGCNDACTVFQTSEYCCTTGKCGPTEYSRFFKRLCPDAFSYVLDKPTTVTCPGSSNYRVTFCPTA
- Effect on VGSC current, alone: amplified VGSC currents similarly to Aβ1-42
- Effect on VGSC current when applied after Aβ1-42 (listed as thaumatin): further amplification of VGSC currents was not observed; also recorded: no further amplification
- Effect on VGSC current, alone (listed as thaumatin): similarly amplified VGSC currents as Aβ1-42
